This is an account of results in PMC6941230.

For this series, the target named is T1, Rox1 (Saccharomyces cerevisiae, UniProt P25042 1-368).
T1 sequence: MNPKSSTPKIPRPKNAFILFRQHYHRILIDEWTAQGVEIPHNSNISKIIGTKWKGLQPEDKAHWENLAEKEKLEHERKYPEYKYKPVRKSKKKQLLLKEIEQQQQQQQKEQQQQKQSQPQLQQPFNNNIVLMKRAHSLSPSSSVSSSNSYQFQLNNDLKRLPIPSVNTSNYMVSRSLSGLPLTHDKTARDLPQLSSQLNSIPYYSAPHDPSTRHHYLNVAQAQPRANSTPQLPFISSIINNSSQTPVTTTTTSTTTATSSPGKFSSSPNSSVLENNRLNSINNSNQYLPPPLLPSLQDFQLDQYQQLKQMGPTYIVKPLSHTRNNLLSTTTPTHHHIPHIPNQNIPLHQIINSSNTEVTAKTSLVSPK
Description: EMSA.

B1: HMG6bp (dsDNA)
DNA 1: TGATTGTCAATTTAGTTAATCATTGTTATTAATAAAGGAAAGATATAAAA
DNA 2: TTTTATATCTTTCCTTTATTAATAACAATGATTAACTAAATTGACAATCA
Regarding B1, the binding result was “binds”.
